Usually Km stands for the concentration of substrate that gives half-maximal velocity.

Holding throughout (experiment): Steady-state kinetic parameters for SIRT1 substrates (PNC1-GDH-coupled assay)
Holding throughout (assay type): biochemical, human
Holding throughout (details): other: 25° C., pH 7.5, [NAD+]o = 2 mM, [SIRT1]o 50-1,000 nM

Substrate in data set [1]: CC(=O)NCCCC[C@H](NC(=O)[C@H](CCCCN)NC(=O)[C@H](Cc1c[nH]cn1)NC(=O)[C@H](CCCNC(=N)N)NC(C)=O)C(=O)Nc1ccc2c(C)cc(=O)oc2c1
As to the method: (§1) All peptides were prepared by BioPeptide (San Diego, Calif.) and shown to be at least 95% pure by analytical HPLC analysis. Bovine glutamate dehydrogenase (GDH), α-ketoglutarate, NADH and NAD^+ were from Sigma Chemical Company. Full-length, human SIRT1 and the truncated version used for biophysical studies SIRT1(183-664) were prepared as described previously, and shown to have equivalent kinetic properties (Milne et al. (2007) Nature 450, 712-716). The nicotinamidase PNC1 was prepared as described by Denu and colleagues (Smith et al. (2009) Anal Biochem 394, 101-109).
(§2) To determine the interaction of STACs with SIRT1 two kinetic methods were employed. One, which was used for TAMRA-peptide, desTAMRA-peptide, des(biotin,TAMRA)-peptide, and p53-20 mer, used a previously described mass spectroscopic method for detection of peptide reaction products (Milne et al. (2007) Nature 450, 712-716). The other, used with peptides of general structure Ac-Arg-His-Lys-Lys^Ac-X, used a continuous, enzyme-coupled method reported previously (Smith et al. (2009) Anal Biochem 394, 101-109), in which the SRT1 product nicotinamide is first converted into nicotinic acid and ammonia by the action of PNC1, and the ammonia then used by GDH to convert α-ketoglutarate into glutamate. This reaction occurs with oxidation of NADH to NAD^+ which is accompanied by a change in absorbance at 340 nm (Δε340=−6,200 M^−1 cm^−1).
(§3) The kinetic experiments used to characterize activators were run on a Perkin Elmer Lambda 25 spectrophotometer equipped with a water-jacketed, eight-cell changer maintained at 25° C. In a typical kinetic experiment, all components of the reaction solution except SIRT1 were added to a 1 mL cuvette and allowed to reach thermal equilibrium. Final concentrations of the coupling system components were: 1 μM PNC1, 0.23 mM NADH, 3.4 mM α-ketoglutarate, and 20 U/mL bovine GDH. This solution also contained peptide substrate, NAD^.0., and activator, at concentrations indicated in the text. The final DMSO concentration was kept constant at 1%, and the buffer used in these experiments was 50 mM HEPES, 150 mM NaCl, pH 7.5. While the system was reaching thermal equilibrium, the absorbance was monitored to provide an accurate estimate of the background rate, which was subtracted from the reaction rate after the addition of SIRT1.
(§4) The parameters reported in this table were all determined using the PNC1-GDH-coupled assay. Kinetic parameters for the four 20 mers were also estimated using the mass spectroscopy-based assay first described by Milne et al. ((2007) Nature 450, 712-716) and agree with those reported in Table 3.

Substrate in data set [2]: CCCC[C@H](NC(=O)[C@H](CCCCNC(C)=O)NC(=O)[C@H](CO)NC(=O)[C@H](Cc1c[nH]cn1)NC(=O)[C@H](CO)NC(=O)[C@H](CO)NC(=O)[C@@H](NC(=O)[C@H](CO)NC(=O)[C@H](CCC(N)=O)NC(=O)CNC(=O)[C@H](CCCCNC(=O)CCCC[C@@H]1SC[C@@H]2NC(=O)N[C@@H]21)NC(=O)[C@H](CCC(=O)O)NC(=O)[C@H](CCC(=O)O)NC(C)=O)[C@@H](C)O)C(=O)N[C@@H](CO)C(=O)N[C@H](C(=O)N[C@@H](CCC(=O)O)C(=O)NCC(=O)N[C@@H](CCCCN)C(=O)N[C@@H](CCC(=O)O)C(=O)N[C@@H](CCC(=O)O)C(N)=O)[C@@H](C)O
As to the method: as §1, §2, §3, §4

Substrate in data set [3]: CC(=O)NCCCC[C@H](NC(=O)[C@H](CCCCN)NC(=O)[C@H](Cc1c[nH]cn1)NC(=O)[C@H](CCCNC(=N)N)NC(C)=O)C(=O)N[C@@H](Cc1ccccc1)C(N)=O
As to the method: as §1, §2, §3, §4

Substrate in data set [4]: CC(=O)NCCCC[C@H](NC(=O)[C@H](CCCCN)NC(=O)[C@H](Cc1c[nH]cn1)NC(=O)[C@H](CCCNC(=N)N)NC(C)=O)C(N)=O
As to the method:
as §1, §2, §3, §4

Substrate in data set [5]: CC(=O)NCCCC[C@H](NC(=O)[C@H](CCCCN)NC(=O)[C@H](Cc1c[nH]cn1)NC(=O)[C@H](CCCNC(=N)N)NC(C)=O)C(=O)N[C@@H](C)C(N)=O
As to the method: as §1, §2, §3, §4

Substrate in data set [6]: CC(=O)NCCCC[C@H](NC(=O)[C@H](CCCCN)NC(=O)[C@H](Cc1c[nH]cn1)NC(=O)[C@H](CCCNC(=N)N)NC(C)=O)C(=O)N[C@@H](Cc1c[nH]c2ccccc12)C(N)=O
The procedure:
as §1, §2, §3, §4

B1: SIRT1 (Homo sapiens) (protein)
chain: MADEAALALQPGGSPSAAGADREAASSPAGEPLRKRPRRDGPGLERSPGEPGGAAPEREVPAAARGCPGAAAAALWREAEAEAAAAGGEQEAQATAAAGEGDNGPGLQGPSREPPLADNLYDEDDDDEGEEEEEAAAAAIGYRDNLLFGDEIITNGFHSCESDEEDRASHASSSDWTPRPRIGPYTFVQQHLMIGTDPRTILKDLLPETIPPPELDDMTLWQIVINILSEPPKRKKRKDINTIEDAVKLLQECKKIIVLTGAGVSVSCGIPDFRSRDGIYARLAVDFPDLPDPQAMFDIEYFRKDPRPFFKFAKEIYPGQFQPSLCHKFIALSDKEGKLLRNYTQNIDTLEQVAGIQRIIQCHGSFATASCLICKYKVDCEAVRGDIFNQVVPRCPRCPADEPLAIMKPEIVFFGENLPEQFHRAMKYDKDEVDLLIVIGSSLKVRPVALIPSSIPHEVPQILINREPLPHLHFDVELLGDCDVIINELCHRLGGEYAKLCCNPVKLSEITEKPPRTQKELAYLSELPPTPLHVSEDSSSPERTSPPDSSVIVTLLDQAAKSNDDLDVSESKGCMEEKPQEVQTSRNVESIAEQMENPDLKNVGSSTGEKNERTSVAGTVRKCWPNRVAKEQISRRLDGNQYLFLPPNRYIFHGAEVYSDSEDDVLSSSSCGSNSDSGTCQSPSLEEPMEDESEIEEFYNGLEDEPDVPERAGGAGFGTDGDDQEAINEAISVKQEVTDMNYPSNKS
In the case of B1, the Km in data set [1] came out at 110 µM; in data set [2] it was 33 µM; in data set [3], 7.1 µM; in data set [4], 23 µM; in data set [5], 13 µM; in data set [6], 4.0 µM.
